Test results published in paper PMC10786891, “Massively parallel profiling of RNA-targeting CRISPR-Cas13d”.

T1: EsCas13d, nuclease-dead (Eubacterium siraeum, UniProt B0MS50, R295A;H300A;R849A;H854A)
T1 sequence: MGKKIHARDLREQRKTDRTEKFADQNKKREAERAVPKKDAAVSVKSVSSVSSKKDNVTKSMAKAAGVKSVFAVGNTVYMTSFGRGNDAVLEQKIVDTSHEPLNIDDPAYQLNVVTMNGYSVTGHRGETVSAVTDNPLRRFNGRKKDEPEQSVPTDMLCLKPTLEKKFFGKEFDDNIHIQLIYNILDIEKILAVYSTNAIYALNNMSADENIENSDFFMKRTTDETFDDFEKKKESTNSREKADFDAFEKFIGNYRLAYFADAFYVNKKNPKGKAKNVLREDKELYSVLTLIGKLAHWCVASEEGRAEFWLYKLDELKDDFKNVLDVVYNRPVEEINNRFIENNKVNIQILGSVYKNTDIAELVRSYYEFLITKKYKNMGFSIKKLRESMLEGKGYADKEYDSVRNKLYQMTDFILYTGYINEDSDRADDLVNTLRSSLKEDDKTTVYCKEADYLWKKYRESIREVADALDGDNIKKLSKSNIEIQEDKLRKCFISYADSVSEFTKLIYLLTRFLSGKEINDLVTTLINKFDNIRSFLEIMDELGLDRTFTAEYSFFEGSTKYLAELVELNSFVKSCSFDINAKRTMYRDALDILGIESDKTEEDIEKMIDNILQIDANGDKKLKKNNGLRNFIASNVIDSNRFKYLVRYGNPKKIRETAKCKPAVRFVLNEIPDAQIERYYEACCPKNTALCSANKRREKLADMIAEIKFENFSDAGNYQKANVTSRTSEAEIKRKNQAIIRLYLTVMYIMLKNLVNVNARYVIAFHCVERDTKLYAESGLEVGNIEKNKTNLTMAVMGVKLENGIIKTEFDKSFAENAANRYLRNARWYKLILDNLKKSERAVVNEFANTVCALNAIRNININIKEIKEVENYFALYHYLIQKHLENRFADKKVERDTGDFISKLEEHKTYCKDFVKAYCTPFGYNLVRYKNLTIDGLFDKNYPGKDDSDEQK


Molecular target: T1, EsCas13d, nuclease-dead
Experiment: crRNA (strand 1, pre-loaded); Mg2+; 40 mM Tris-HCl pH 7.5, 150 mM NaCl, 6 mM MgCl2, 1 mM DTT, 0.1% Tween-20, 0.2 mg/ml BSA; 25 C; 10 min per concentration, then washed
Conditions: tags: His6-TwinStrep-SUMO cleaved; N-terminal SNAP kept (SNAP-Surface 488); label: 3' end held by stalled T7 RNA polymerase

Row | Binder | Kd [nM]
1 | target 1 C7U,A16G (mixed) RNA 1: CACCCGUGCAAAAAUGCAGGGGUCUAAAACUGAGCGGAUAACCUCUCUAUGG RNA 2: GGGAAUGGAUCCACAUCUACGAAUUCGUACCAUAGGGAGGUUAUUCGCUCACCGAGAUCGGAAGAGCACACGU | 29.9 ± 2.6
2 | target 1 insG 3' of 14,insC 3' of 14 (mixed) RNA 1: CACCCGUGCAAAAAUGCAGGGGUCUAAAACUGAGCGGAUAACCUCUCUAUGG RNA 2: GGGAAUGGAUCCACAUCUACGAAUUCGUACCAUAGAGAGCGGUUAUCCGCUCACCGAGAUCGGAAGAGCACACGU | 34 ± 6
3 | target 1 insG 3' of 6,insC 3' of 1 (mixed) RNA 1: CACCCGUGCAAAAAUGCAGGGGUCUAAAACUGAGCGGAUAACCUCUCUAUGG RNA 2: GGGAAUGGAUCCACAUCUACGAAUUCGUACCAUAGAGAGGUUAUCCGGCUCACCCGAGAUCGGAAGAGCACACGU | 13.1 ± 0.9
4 | target 1 del20 (mixed) RNA 1: CACCCGUGCAAAAAUGCAGGGGUCUAAAACUGAGCGGAUAACCUCUCUAUGG RNA 2: GGGAAUGGAUCCACAUCUACGAAUUCGUACCUAGAGAGGUUAUCCGCUCACCGAGAUCGGAAGAGCACACGU | 31 ± 1.6
5 | target 1 C6G,C22G (mixed) RNA 1: CACCCGUGCAAAAAUGCAGGGGUCUAAAACUGAGCGGAUAACCUCUCUAUGG RNA 2: GGGAAUGGAUCCACAUCUACGAAUUCGUAGCAUAGAGAGGUUAUCGGCUCACCGAGAUCGGAAGAGCACACGU | 35 ± 5
6 | target 1 insG 3' of 18,insA 3' of 10 (mixed) RNA 1: CACCCGUGCAAAAAUGCAGGGGUCUAAAACUGAGCGGAUAACCUCUCUAUGG RNA 2: GGGAAUGGAUCCACAUCUACGAAUUCGUACCAUAGGAGAGGUUAAUCCGCUCACCGAGAUCGGAAGAGCACACGU | 64 ± 6
7 | target 1 insA 3' of 4,insA 3' of 4 (mixed) RNA 1: CACCCGUGCAAAAAUGCAGGGGUCUAAAACUGAGCGGAUAACCUCUCUAUGG RNA 2: GGGAAUGGAUCCACAUCUACGAAUUCGUACCAUAGAGAGGUUAUCCGCAAUCACCGAGAUCGGAAGAGCACACGU | 5.91 ± 0.24
8 | target 1 C6U,G13U (mixed) RNA 1: CACCCGUGCAAAAAUGCAGGGGUCUAAAACUGAGCGGAUAACCUCUCUAUGG RNA 2: GGGAAUGGAUCCACAUCUACGAAUUCGUACCAUAGAGAUGUUAUCUGCUCACCGAGAUCGGAAGAGCACACGU | 38 ± 5
9 | target 1 G5C,G12A (mixed) RNA 1: CACCCGUGCAAAAAUGCAGGGGUCUAAAACUGAGCGGAUAACCUCUCUAUGG RNA 2: GGGAAUGGAUCCACAUCUACGAAUUCGUACCAUAGAGAGAUUAUCCCCUCACCGAGAUCGGAAGAGCACACGU | 8.6 ± 0.4
10 | target 1 insG 3' of 18,insU 3' of 4 (mixed) RNA 1: CACCCGUGCAAAAAUGCAGGGGUCUAAAACUGAGCGGAUAACCUCUCUAUGG RNA 2: GGGAAUGGAUCCACAUCUACGAAUUCGUACCAUAGGAGAGGUUAUCCGCUUCACCGAGAUCGGAAGAGCACACGU | 63 ± 4
11 | target 1 insG 3' of 2,insU 3' of 1 (mixed) RNA 1: CACCCGUGCAAAAAUGCAGGGGUCUAAAACUGAGCGGAUAACCUCUCUAUGG RNA 2: GGGAAUGGAUCCACAUCUACGAAUUCGUACCAUAGAGAGGUUAUCCGCUCGAUCCGAGAUCGGAAGAGCACACGU | 9.9 ± 0.9
12 | target 1 A1C,G12A (mixed) RNA 1: CACCCGUGCAAAAAUGCAGGGGUCUAAAACUGAGCGGAUAACCUCUCUAUGG RNA 2: GGGAAUGGAUCCACAUCUACGAAUUCGUACCAUAGAGAGAUUAUCCGCUCCCCGAGAUCGGAAGAGCACACGU | 6.6 ± 0.5
13 | target 1 G12U,G15A (mixed) RNA 1: CACCCGUGCAAAAAUGCAGGGGUCUAAAACUGAGCGGAUAACCUCUCUAUGG RNA 2: GGGAAUGGAUCCACAUCUACGAAUUCGUACCAUAGAAAGUUUAUCCGCUCACCGAGAUCGGAAGAGCACACGU | 11.3 ± 1.3
14 | target 1 C7U,G13C (mixed) RNA 1: CACCCGUGCAAAAAUGCAGGGGUCUAAAACUGAGCGGAUAACCUCUCUAUGG RNA 2: GGGAAUGGAUCCACAUCUACGAAUUCGUACCAUAGAGACGUUAUUCGCUCACCGAGAUCGGAAGAGCACACGU | ~70
15 | target 1 del17,del19 (mixed) RNA 1: CACCCGUGCAAAAAUGCAGGGGUCUAAAACUGAGCGGAUAACCUCUCUAUGG RNA 2: GGGAAUGGAUCCACAUCUACGAAUUCGUACCAAAGAGGUUAUCCGCUCACCGAGAUCGGAAGAGCACACGU | 50 ± 5
16 | target 1 insC 3' of 8,insA 3' of 5 (mixed) RNA 1: CACCCGUGCAAAAAUGCAGGGGUCUAAAACUGAGCGGAUAACCUCUCUAUGG RNA 2: GGGAAUGGAUCCACAUCUACGAAUUCGUACCAUAGAGAGGUUAUCCCGACUCACCGAGAUCGGAAGAGCACACGU | 13.2 ± 1.2
17 | target 1 insG 3' of 2,insA 3' of 2 (mixed) RNA 1: CACCCGUGCAAAAAUGCAGGGGUCUAAAACUGAGCGGAUAACCUCUCUAUGG RNA 2: GGGAAUGGAUCCACAUCUACGAAUUCGUACCAUAGAGAGGUUAUCCGCUCGAACCGAGAUCGGAAGAGCACACGU | 10 ± 0.8
18 | target 1 insA 3' of 10,insG 3' of 9 (mixed) RNA 1: CACCCGUGCAAAAAUGCAGGGGUCUAAAACUGAGCGGAUAACCUCUCUAUGG RNA 2: GGGAAUGGAUCCACAUCUACGAAUUCGUACCAUAGAGAGGUUAAGUCCGCUCACCGAGAUCGGAAGAGCACACGU | 18.3 ± 0.8
19 | target 1 insG 3' of 11,insU 3' of 9 (mixed) RNA 1: CACCCGUGCAAAAAUGCAGGGGUCUAAAACUGAGCGGAUAACCUCUCUAUGG RNA 2: GGGAAUGGAUCCACAUCUACGAAUUCGUACCAUAGAGAGGUGUAUUCCGCUCACCGAGAUCGGAAGAGCACACGU | 28 ± 5
20 | target 1 insC 3' of 20,insC 3' of 3 (mixed) RNA 1: CACCCGUGCAAAAAUGCAGGGGUCUAAAACUGAGCGGAUAACCUCUCUAUGG RNA 2: GGGAAUGGAUCCACAUCUACGAAUUCGUACCACUAGAGAGGUUAUCCGCUCCACCGAGAUCGGAAGAGCACACGU | 8.5 ± 0.4
21 | target 1 insU 3' of 20,insC 3' of 12 (mixed) RNA 1: CACCCGUGCAAAAAUGCAGGGGUCUAAAACUGAGCGGAUAACCUCUCUAUGG RNA 2: GGGAAUGGAUCCACAUCUACGAAUUCGUACCAUUAGAGAGGCUUAUCCGCUCACCGAGAUCGGAAGAGCACACGU | 37 ± 14
22 | target 1 insA 3' of 10,insG 3' of 7 (mixed) RNA 1: CACCCGUGCAAAAAUGCAGGGGUCUAAAACUGAGCGGAUAACCUCUCUAUGG RNA 2: GGGAAUGGAUCCACAUCUACGAAUUCGUACCAUAGAGAGGUUAAUCGCGCUCACCGAGAUCGGAAGAGCACACGU | 12.4 ± 0.7
23 | target 1 insA 3' of 17,insU 3' of 2 (mixed) RNA 1: CACCCGUGCAAAAAUGCAGGGGUCUAAAACUGAGCGGAUAACCUCUCUAUGG RNA 2: GGGAAUGGAUCCACAUCUACGAAUUCGUACCAUAGAAGAGGUUAUCCGCUCUACCGAGAUCGGAAGAGCACACGU | 15.4 ± 1.6
24 | target 1 insG 3' of 6,insA 3' of 2 (mixed) RNA 1: CACCCGUGCAAAAAUGCAGGGGUCUAAAACUGAGCGGAUAACCUCUCUAUGG RNA 2: GGGAAUGGAUCCACAUCUACGAAUUCGUACCAUAGAGAGGUUAUCCGGCUCAACCGAGAUCGGAAGAGCACACGU | 12.6 ± 0.7
25 | target 1 del20,del22 (mixed) RNA 1: CACCCGUGCAAAAAUGCAGGGGUCUAAAACUGAGCGGAUAACCUCUCUAUGG RNA 2: GGGAAUGGAUCCACAUCUACGAAUUCGUACUAGAGAGGUUAUCCGCUCACCGAGAUCGGAAGAGCACACGU | 9 ± 1.2
26 | target 1 insG 3' of 11,insC 3' of 10 (mixed) RNA 1: CACCCGUGCAAAAAUGCAGGGGUCUAAAACUGAGCGGAUAACCUCUCUAUGG RNA 2: GGGAAUGGAUCCACAUCUACGAAUUCGUACCAUAGAGAGGUGUCAUCCGCUCACCGAGAUCGGAAGAGCACACGU | 21.3 ± 0.9
27 | target 1 C2A,C4A (mixed) RNA 1: CACCCGUGCAAAAAUGCAGGGGUCUAAAACUGAGCGGAUAACCUCUCUAUGG RNA 2: GGGAAUGGAUCCACAUCUACGAAUUCGUACCAUAGAGAGGUUAUCCGAUAACCGAGAUCGGAAGAGCACACGU | 10.3 ± 0.5
28 | target 1 insG 3' of 11,insG 3' of 6 (mixed) RNA 1: CACCCGUGCAAAAAUGCAGGGGUCUAAAACUGAGCGGAUAACCUCUCUAUGG RNA 2: GGGAAUGGAUCCACAUCUACGAAUUCGUACCAUAGAGAGGUGUAUCCGGCUCACCGAGAUCGGAAGAGCACACGU | 39 ± 4
